Test results published in US20230183373A1 (MINERVA BIOTECHNOLOGIES, published 2023).

B1: mouse monoclonal antibody MN-C2 (antibody, V domains shown)
VH: EVQLEESGGGLVKPGGSLKLSCAASGFTFSGYAMSWVRQTPEKRLEWVATISSGGTYIYYPDSVKGRFTISRDNAKNTLYLQMSSLRSEDTAMYYCARLGGDNYYEYFDVWGAGTTVTVSS
VL: DIVITQSTASLGVSLGQRATISCRASKSVSTSGYSYMHWYQQRPGQPPKLLIYLASNLESGVPARFSGSGSGTDFTLNIHPVEEEDAATYYCQHSRELPFTFGGGTKLEIKR
notes: Mouse monoclonal IgG; the printed entries run a few residues into the constant regions
B2: mouse monoclonal antibody MN-C3 (antibody, V domains shown)
VH: QVQLQQSGPELVRPGVSVKISCKGSGYRFTDYAMNWVKQSHAKSLEWIGVISTFSGNTNFNQKFKGKATMTVDKSSSTAYMELARLTSEDSAMYYCARSDYYGPYFDYWGQGTTLTVSS
VL: DVLMTQTPLSLPVSLGDQASISCRSSQTIVHSNGNTYLEWYLQKPGQSPKLLIYKVSNRFSGVPDRFSGSGSGTDFTLKINRVEAEDLGVYYCFQGSHVPFTFGSGTKLEIK
notes: Mouse monoclonal IgG
B3: humanized MN-C2 scFv (scFv, V domains shown)
VH: EVQLVESGGGLVKPGGSLRLSCAASGFTFSGYAMSWVRQAPGKGLEWVSTISSGGTYIYYPDSVKGRFTISRDNAKNSLYLQMNSLRAEDTAVYYCARLGGDNYYEYFDVWGKGTTVTVSS
VL: DIVLTQSPASLAVSPGQRATITCRASKSVSTSGYSYMHWYQQKPGQPPKLLIYLASNLESGVPARFSGSGSGTDFTLTINPVEANDTANYYCQHSRELPFTFGGGTKVEIKR
notes: also called huMN-C2 scFv; hu MN-C2 scFv; not shown: Linker; which one was te; 6xHis tag (detected with Anti-Penta-His)
B4: PSMGFR minus 10 amino acids from the C-terminus (peptide)
peptide: GTINVHDVETQFNQYKTEAASRYNLTISDVSVSDV
notes: also called C-10; C-10 PSMGFR
B5: hu MN-E6 scFv-Fc-Y407R-hingeless (Fc fusion)
chain: AAQPAEVQLVESGGGLVKPGGSLRLSCAASGFTFSRYGMSWVRQAPGKRLEWVSTISGGGTYIYYPDSVKGRFTISRDNAKNTLYLQMNSLRAEDTAVYYCTRDNYGRNYDYGMDYWGQGTLVTVSSGGGGSGGGGSGGGGSEIVLTQSPATLSLSPGERATLTCSATSSVSYIHWYQQRPGQSPRLLIYSTSNLASGIPARFSGSGSGSDYTLTISSLEPEDFAVYYCQQRSSSPFTFGSGTKVEIKAPELLGGPSVFLFPPKPKDTLMISRTPEVTCVVVDVSHEDPEVKFNWYVDGVEVHNAKTKPREEQYNSTYRVVSVLTVLHQDWLNGKEYKCKVSNKALPAPIEKTISKAKGQPREPQVYTLPPSREEMTKNQVSLTCLVKGFYPSDIAVEWESNGQPENNYKTTPPVLDSDGSFFLRSKLTVDKSRWQQGNVFSCSVMHEALHNHYTQKSLSLSPGK
notes: The construct derives from the pSECTag2 E6 scFv-Fc, so it carries the leader and AAQPA before the scFv; also called MN-E6 scFv-Fc with deleted hinge and Y407R
B6: mouse monoclonal antibody MN-E6 (antibody, V domains shown)
VH: EVKVVESGGDLVKPGGSLKLSCVVSGFTFSRYGMSWVRQTPGKRLEWVATISGGGTYIYYPDSVKGRFTISRDNAKNTLYLQMSSLKSEDTAMYHCTRDNYGRNYDYGMDYWGQGTSVTVSS
VL: QIVLTQSPAIMSASPGEEVTLTCSATSSVSYIHWFQQRPGTSPKLWIYSTSNLASGVPVRFSGSGYGTSYSLTISRMEAEDAATYYCQQRSSSPFTFGSGTKLEIK
notes: Mouse monoclonal IgG; the constant regions are not; also called parent mouse MN-E6 antibody

Tests used:
[1] = target: T1, PSMGFR minus 10 amino acids from the N-terminus; assay: selection screens (FIG. 3A-C cited)
T1 construct: also called N-10; N-10 PSMGFR
T1 peptide: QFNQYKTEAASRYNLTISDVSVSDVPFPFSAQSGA

[2] = target: T2, PSMGFR peptide (Primary Sequence of the MUC1 Growth Factor Receptor); assay: ELISA on immobilised PSMGFR (FIG. 2B)
T2 construct: Synthetic peptide; also called MUC1* peptide; MUC1* PSMGFR peptide
T2 peptide: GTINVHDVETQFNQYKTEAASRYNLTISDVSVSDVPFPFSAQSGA

[3] = target: B4; assay: ELISA on immobilised N-10 and C-10 peptides (FIG. 2E)
[4] = target: T2, PSMGFR peptide (Primary Sequence of the …); assay: ELISA on immobilised PSMGFR, N-10 and C-10 (FIG. 22A)
[5] = target: T2, PSMGFR peptide (Primary Sequence of the …); assay: ELISA, surface coated with PSMGFR peptide (FIG. 5)
NME7-AB = target: T3, NME7-AB (human, UniProt Q9Y5B8 92-376, limits assumed); assay: ELISA on immobilised C-10 peptide (FIG. 2A)
T3 construct: also called NM23-H7
T3 sequence: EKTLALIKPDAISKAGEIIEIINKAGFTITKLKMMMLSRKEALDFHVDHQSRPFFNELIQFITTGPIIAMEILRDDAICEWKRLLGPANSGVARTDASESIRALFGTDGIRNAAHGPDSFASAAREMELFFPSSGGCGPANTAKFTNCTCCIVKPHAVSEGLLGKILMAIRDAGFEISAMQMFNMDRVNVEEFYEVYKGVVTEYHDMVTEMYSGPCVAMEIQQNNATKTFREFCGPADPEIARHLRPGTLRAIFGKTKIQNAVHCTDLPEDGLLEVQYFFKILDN

dimeric NME1 = target: T4, dimeric NME1 (human, UniProt P15531 1-152, limits assumed); assay: ELISA on immobilised C-10 peptide (FIG. 2D)
T4 construct: Used in dimer form; also called NM23-H1 dimers; dimeric NM23-H1
T4 sequence (P15531 whole entry): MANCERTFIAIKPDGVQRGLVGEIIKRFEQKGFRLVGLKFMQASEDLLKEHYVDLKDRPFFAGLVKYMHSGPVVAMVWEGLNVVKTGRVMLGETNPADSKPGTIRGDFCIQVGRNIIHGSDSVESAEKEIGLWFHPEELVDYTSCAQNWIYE

[6] = target: T2, PSMGFR peptide (Primary Sequence of the …); assay: ELISA on PSMGFR (FIG. 21A)
[7] = target: T2, PSMGFR peptide (Primary Sequence of the …); assay: ELISA on immobilised PSMGFR (FIG. 2C)

B1: binds [1]; binds [2].

B2: binds [3]; binds [4].

B3 showed an EC50 [5] of ~333 nM.

B4: no binding (NME7-AB); no binding (dimeric NME1).

B5: binds [6].

B6: binds [7]; binds [1].
